# Where “and” joins values, the source holds several entries; their conditions need not be identical. Identical values can stand only once. Like-named read-outs stand apart in the source and are kept apart here.
# Tests used:
# [1] = target: human FcγRIIIa (F158 allele) (human) (UniProt P08637); experiment: MSD [cont'd]
# [2] = target: human FcγRIIIa (V158 allele) (human) (UniProt P08637); experiment: MSD [cont'd]
# human FcγRIIIb (human) [3] = target: human FcγRIIIb (human) (UniProt O75015); experiment: MSD [cont'd]
# [4] = target: human FcγRIIa (R131 allele) (human) (UniProt P12318); experiment: MSD [cont'd]
# [5] = target: human FcγRIIa (H131 allele) (human) (UniProt P12318); experiment: MSD [cont'd]
# human FcRn (human) [6] = target: human FcRn (human) (UniProt P55899); experiment: MSD [cont'd]
# human FcγRIIb (human) [7] = target: human FcγRIIb (human) (UniProt P31994); experiment: MSD [cont'd]
# [8] = target: human FcγRIIIa (F158 allele) (human) (UniProt P08637)
# [9] = target: human FcγRIIIa (V158 allele) (human) (UniProt P08637)
# [10] = target: human FcγRIIIa (F158 allele) (human) (UniProt P08637); experiment: MSD
# [11] = target: human FcγRIIIa (V158 allele) (human) (UniProt P08637); experiment: MSD
# human FcγRIIIb (human) [12] = target: human FcγRIIIb (human) (UniProt O75015); experiment: MSD
# [13] = target: human FcγRIIa (R131 allele) (human) (UniProt P12318); experiment: MSD
# [14] = target: human FcγRIIa (H131 allele) (human) (UniProt P12318); experiment: MSD
# human FcγRIIb (human) [15] = target: human FcγRIIb (human) (UniProt P31994); experiment: MSD
# human C1q (human) [16] = target: human C1q (human) (UniProt P02745); experiment: MSD
# [17] = target: human FcγRIIIa (F158 allele) (human) (UniProt P08637); remark: listed apart in the source
# [18] = target: human FcγRIIIa (V158 allele) (human) (UniProt P08637); remark: listed apart in the source
# [19] = target: human FcγRIIa (H131 allele) (human) (UniProt P12318)
# human FcγRIIb (human) [20] = target: human FcγRIIb (human) (UniProt P31994)
# human C1q (human) [21] = target: human C1q (human) (UniProt P02745); experiment: MSD [cont'd]
# human FcRn (human) [22] = target: human FcRn (human) (UniProt P55899); experiment: MSD, pH 6 [cont'd]
# human C1q (human) [23] = target: human C1q (human) (UniProt P02745); experiment: MSD [cont'd]; remark: listed apart in the source
# human FcRn (human) [24] = target: human FcRn (human) (UniProt P55899); experiment: MSD
# Chain of human FcγRIIIb (human) (O75015 17-200 limits assumed): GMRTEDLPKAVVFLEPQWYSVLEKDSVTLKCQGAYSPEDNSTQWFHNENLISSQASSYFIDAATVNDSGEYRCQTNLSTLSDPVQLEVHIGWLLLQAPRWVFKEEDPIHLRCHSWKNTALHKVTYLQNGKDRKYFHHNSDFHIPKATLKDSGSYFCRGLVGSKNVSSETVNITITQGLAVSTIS
# Chain of human FcγRIIa (R131 allele) (human) (P12318 34-218 H167R limits assumed): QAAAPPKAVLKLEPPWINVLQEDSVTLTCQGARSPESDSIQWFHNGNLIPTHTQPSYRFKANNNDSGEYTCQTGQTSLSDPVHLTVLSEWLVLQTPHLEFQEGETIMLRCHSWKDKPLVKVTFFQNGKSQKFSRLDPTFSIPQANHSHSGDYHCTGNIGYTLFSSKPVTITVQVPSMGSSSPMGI
# Chain of human FcγRIIIa (F158 allele) (human) (P08637 17-208 limits assumed): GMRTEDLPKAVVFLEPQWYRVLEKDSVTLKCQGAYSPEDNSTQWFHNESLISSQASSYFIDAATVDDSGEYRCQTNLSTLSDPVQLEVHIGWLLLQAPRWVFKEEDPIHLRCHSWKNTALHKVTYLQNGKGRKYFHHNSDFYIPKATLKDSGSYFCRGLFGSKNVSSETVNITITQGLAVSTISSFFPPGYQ
# Chain of human FcγRIIIa (V158 allele) (human) (P08637 17-208 F176V limits assumed): as the sequence (P08637 17-208 limits assumed) above, with F160V counted along it
# Chain of human C1q (human) (P02745 23-245 limits assumed, chain 1 of 3): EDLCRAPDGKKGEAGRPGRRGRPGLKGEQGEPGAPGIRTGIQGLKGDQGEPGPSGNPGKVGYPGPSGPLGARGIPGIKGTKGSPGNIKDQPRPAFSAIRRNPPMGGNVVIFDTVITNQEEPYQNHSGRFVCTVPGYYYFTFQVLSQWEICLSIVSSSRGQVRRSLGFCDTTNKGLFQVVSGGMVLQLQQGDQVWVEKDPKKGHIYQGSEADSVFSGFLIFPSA
# Chain of human C1q (human) (P02746 28-253 limits assumed, chain 2 of 3, further chain): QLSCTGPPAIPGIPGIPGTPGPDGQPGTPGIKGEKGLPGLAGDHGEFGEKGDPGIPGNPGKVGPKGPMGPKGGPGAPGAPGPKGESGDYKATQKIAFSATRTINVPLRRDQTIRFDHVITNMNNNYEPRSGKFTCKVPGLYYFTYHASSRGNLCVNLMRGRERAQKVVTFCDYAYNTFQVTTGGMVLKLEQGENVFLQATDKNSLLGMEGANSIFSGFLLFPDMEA
# Chain of human C1q (human) (P02747 29-245 limits assumed, chain 3 of 3, further chain): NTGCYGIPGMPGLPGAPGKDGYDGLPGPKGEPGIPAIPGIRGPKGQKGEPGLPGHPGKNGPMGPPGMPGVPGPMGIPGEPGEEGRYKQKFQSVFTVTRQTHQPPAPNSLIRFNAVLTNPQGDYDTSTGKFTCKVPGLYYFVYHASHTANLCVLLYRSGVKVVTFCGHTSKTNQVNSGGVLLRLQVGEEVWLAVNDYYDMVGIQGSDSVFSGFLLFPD
# Chain of human FcRn (human) (P55899 24-297 limits assumed, chain 1 of 2): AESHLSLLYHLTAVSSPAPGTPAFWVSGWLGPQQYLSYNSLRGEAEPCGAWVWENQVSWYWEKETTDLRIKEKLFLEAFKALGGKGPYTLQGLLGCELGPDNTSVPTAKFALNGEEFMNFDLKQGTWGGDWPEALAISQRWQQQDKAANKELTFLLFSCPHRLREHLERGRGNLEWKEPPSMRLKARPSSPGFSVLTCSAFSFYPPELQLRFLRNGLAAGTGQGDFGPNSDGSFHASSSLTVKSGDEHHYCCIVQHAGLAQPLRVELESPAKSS
# Chain of human FcRn (human) (chain, as listed by the source limits assumed, chain 2 of 2): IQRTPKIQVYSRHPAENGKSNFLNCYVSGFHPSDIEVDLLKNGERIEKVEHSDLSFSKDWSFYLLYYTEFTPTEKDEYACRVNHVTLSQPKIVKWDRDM
# Chain of human FcγRIIa (H131 allele) (human) (P12318 34-218 limits assumed): as the sequence (P12318 34-218 H167R limits assumed) above, with R134H counted along it
# Chain of human FcγRIIb (human) (P31994 43-217 limits assumed): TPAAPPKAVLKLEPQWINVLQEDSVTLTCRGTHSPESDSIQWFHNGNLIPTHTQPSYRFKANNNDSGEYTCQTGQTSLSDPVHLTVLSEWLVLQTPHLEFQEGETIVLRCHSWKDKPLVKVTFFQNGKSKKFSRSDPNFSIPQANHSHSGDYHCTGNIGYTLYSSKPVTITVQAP
Substance,fold to wt-fucose [1],fold to wt-fucose [2],fold to wt-fucose (human FcγRIIIb (human) [3]),fold to wt-fucose [4],fold to wt-fucose [5],fold to wt-fucose (human FcRn (human) [6]),fold to wt-fucose (human FcγRIIb (human) [7]),"FcγR reporter signaling, fold to wt-fucose [cont'd] [8]","FcγR reporter signaling, fold to wt-fucose [cont'd] [9]",fold-change (reference not given) [10],fold-change (reference not given) [11],fold-change (reference not given) (human FcγRIIIb (human) [12]),fold-change (reference not given) [13],fold-change (reference not given) [14],fold-change (reference not given) (human FcγRIIb (human) [15]),further results
G236A_A330L_I332E-afuc (antibody),259 fold,32 fold,14.1 fold,1.65 fold,3.45 fold,1.09 fold,0.67 fold,14.8 fold,5.27 fold,242 fold,28 fold,14.8 fold,1.6 fold,3.1 fold,0.6 fold,–
G236A_A330L_I332E_M428L_N434S-afuc (antibody),275 fold,34.5 fold,11.8 fold,1.2 fold,2.56 fold,7.37 fold,0.41 fold,16.4 fold,6.2 fold,256 fold,30.2 fold,12.3 fold,1.1 fold,2.3 fold,0.4 fold,–
G236A (antibody),–,–,–,–,–,–,–,–,–,–,–,–,–,–,–,fold-change vs FY1 rIgG1m3 [10]: 0.6 fold and 0.8 fold; fold-change vs FY1 rIgG1m3 [11]: 0.4 fold and 0.6 fold; fold-change vs FY1 rIgG1m3 (human FcγRIIIb (human) [12]): 0.82 fold; fold-change vs FY1 rIgG1m3 [13]: 4.8 fold and 6.3 fold; fold-change vs FY1 rIgG1m3 (human C1q (human) [16]): 0.59 fold and 0.36 fold; fold-change vs FY1 rIgG1m3 [14]: 5.9 fold and 12.1 fold; fold-change vs FY1 rIgG1m3 (human FcγRIIb (human) [15]): 0.6 fold and 1.1 fold
IgG1 antibody with Fc variant G236S_R292P_Y300L,–,–,–,–,–,–,–,–,–,–,–,–,–,–,–,"FcγR reporter signaling, fold-change vs wt [cont'd] [17]: 1.52 fold; FcγR reporter signaling, fold-change vs wt [cont'd] [18]: 1.32 fold; FcγR reporter signaling, fold-change vs wt [cont'd] [19]: 2.24 fold; FcγR reporter signaling, fold-change vs wt [cont'd] (human FcγRIIb (human) [20]): 0.93 fold; fold-change to WT Fc [1]: 1.06 fold; fold-change to WT Fc (human C1q (human) [21]): 1.98 fold; fold-change vs wt (human C1q (human) [21]): 1.98 fold; fold-change vs wt (human FcRn (human) [6]): 0.87 fold; fold-change vs wt [10]: 1.06 fold; fold-change to WT Fc [11]: 0.753 fold; fold-change vs wt [11]: 0.75 fold; fold-change vs wt (human FcγRIIIb (human) [12]): 1.04 fold; fold-change to WT Fc [13]: 1.34 fold; fold-change vs wt [13]: 1.34 fold; fold-change to WT Fc [14]: 10.9 fold; fold-change vs wt [14]: 10.8 fold; fold-change to WT Fc (human FcγRIIb (human) [15]): 0.817 fold; fold-change vs wt (human FcγRIIb (human) [15]): 0.82 fold; fold-change to WT Fc (human FcRn (human) [22]): 0.87 fold; fold-change vs wt (human C1q (human) [23]): 1.96 fold"
GRLR (Fc-LS) (antibody),–,–,–,–,–,–,–,–,–,–,–,–,–,–,–,fold-change vs FY1 rIgG1m3-MLNS [10]: 0.25 fold; fold-change vs FY1 rIgG1m3-MLNS [11]: 0.08 fold; fold-change vs FY1 rIgG1m3-MLNS (human FcγRIIIb (human) [12]): 0.7 fold; fold-change vs FY1 rIgG1m3-MLNS [13]: 0.38 fold; fold-change vs FY1 rIgG1m3-MLNS [14]: 0.28 fold; fold-change vs FY1 rIgG1m3-MLNS (human FcRn (human) [24]): 0.69 fold; fold-change vs FY1 rIgG1m3-MLNS (human FcγRIIb (human) [15]): 0.38 fold
G236A_R292P_I377N-afuc (antibody),14.8 fold,7.14 fold,1.2 fold,1.35 fold,5.54 fold,0.8 fold,0.6 fold,9.68 fold,3.94 fold,14.8 fold,7.1 fold,1.2 fold,1.4 fold,5.5 fold,0.6 fold,–
